Measured values: doi:10.1101/2022.06.09.495453, “Molecular insights into human Shieldin complex assembly and recruitment to DSBs” (bioRxiv, 2022)
One block for each binder: values may come before it.

Legend:
REV7^WT = target: T1, REV7^WT (human, UniProt Q9UI95 1-211); assay: SPR; SHLD3^1-62 or REV3^1871-2014 immobilised on an SCR HC30M chip by EDC-NHS coupling; REV7^WT or REV7^R124A injected in two-fold dilutions; buffer B with 0.05% Tween 20; KD estimated from plateau values at the end of the dissociation phase; conditions: both partners purified
T1 construct: REV7 (MAD2L2), human, HORMA domain protein; 211 residues printed; wild type; also called WT-REV7; MAD2L2; source: E. coli LOBSTR, purified (metal chelating column, tag cleavage, SEC)

REV7^R124A [1] = target: REV7^R124A (human, UniProt Q9UI95 1-211, R124A); assay: SPR
REV7^R124A [2] = target: T2, REV7^R124A (human, UniProt Q9UI95 1-211, R124A); assay: SPR; SHLD3^1-62 or REV3^1871-2014 immobilised on an SCR HC30M chip by EDC-NHS coupling; REV7^WT or REV7^R124A injected in two-fold dilutions; buffer B with 0.05% Tween 20; KD estimated from plateau values at the end of the dissociation phase; conditions: both partners purified
T2 construct: REV7 (MAD2L2), human; 211 residues printed; R124A; also called R124A-REV7; source: E. coli LOBSTR, purified (metal chelating column, tag cleavage, SEC)
T2 sequence (Q9UI95 whole entry R124A): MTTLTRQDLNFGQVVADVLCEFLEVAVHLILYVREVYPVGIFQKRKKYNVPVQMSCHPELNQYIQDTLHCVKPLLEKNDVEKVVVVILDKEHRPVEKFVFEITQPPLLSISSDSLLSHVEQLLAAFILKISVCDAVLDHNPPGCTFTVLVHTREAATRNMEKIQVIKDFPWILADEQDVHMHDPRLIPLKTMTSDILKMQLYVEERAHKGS

MBP-REV7^WT = target: T3, MBP-REV7^WT (human, UniProt Q9UI95 1-211); assay: pull-down; MBP pull-down of GST-SHLD3^1-83 with MBP-REV7^WT or MBP-REV7^core; conditions: both partners purified
T3 construct: REV7 (MAD2L2), human; 211 residues printed; wild type; source: E. coli LOBSTR, purified; not shown: hexahistidine-MBP, N-terminal, kept
T3 sequence (Q9UI95 whole entry): as the sequence (Q9UI95 whole entry R124A) above, with A124R counted along it

T1 sequence (Q9UI95 whole entry, the tested form may be a part): as the sequence (Q9UI95 whole entry R124A) above, with A124R counted along it

- binding result (REV7^WT): binds
B1: REV3^1871-2014 (domain or fragment, human, UniProt O60673 1871-2014, looked up)
chain: TPRTANILKPLMSPPSREEIMATLLDHDLSETIYQEPFCSNPSDVPEKPREIGGRLLMVETRLANDLAEFEGDFSLEGLRLWKTAFSAMTQNPRPGSPLRSGQGVVNKGSSNSPKMVEDKKIVIMPCKCAPSRQLVQVWLQAKE
notes: REV3, human, residues 1871-2014 (holds RBM1 1875-1896 and RBM2 1991-2012); The general protocol cleaves the tag; source: E. coli LOBSTR, purified

- Kd (REV7^R124A [1]): ~67 nM
- Kd (REV7^WT): ~38 nM
- binding result (REV7^R124A [2]): binds
B2: SHLD3^1-62 (domain or fragment, human, UniProt Q6ZNX1 1-62, looked up)
chain: MTTEVILHYRPCESDPTQLPKIAEKAIQDFPTRPLSRFIPWFPYDGSKLPLRPKRSPPVISE
notes: SHLD3, human, residues 1-62; The general protocol cleaves the tag; also called SHLD3^RBM; source: E. coli LOBSTR, purified

- binding result (MBP-REV7^WT): binds
B3: GST-SHLD3^1-83 (domain or fragment, human, UniProt Q6ZNX1 1-83, looked up)
chain: MTTEVILHYRPCESDPTQLPKIAEKAIQDFPTRPLSRFIPWFPYDGSKLPLRPKRSPPVISEEAAEDVKQYLTISEHDAKSHS
notes: SHLD3, human, residues 1-83; also called SHLD3^RBM; source: E. coli LOBSTR, purified; not shown: GST, N-terminal, kept
